# Source: PMC10516636, “Structural basis for the selective methylation of 5-carboxymethoxyuridine in tRNA modification” (Nucleic Acids Research, 2023)
# T1: CmoM (Escherichia coli (ASKA library clone), UniProt P36566 1-261)
# T1 sequence: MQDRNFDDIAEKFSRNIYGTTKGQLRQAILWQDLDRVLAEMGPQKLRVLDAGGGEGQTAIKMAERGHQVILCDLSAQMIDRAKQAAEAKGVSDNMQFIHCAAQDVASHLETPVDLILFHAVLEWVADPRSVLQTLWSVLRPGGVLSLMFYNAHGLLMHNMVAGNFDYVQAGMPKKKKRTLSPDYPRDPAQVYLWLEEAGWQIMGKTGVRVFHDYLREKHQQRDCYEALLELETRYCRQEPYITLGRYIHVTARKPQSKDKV
# B1: Escherichia coli CmoM (wild type, recombinant) (enzyme, E. coli)
# chain: QDRNFDDIAEKFSRNIYGTTKGQLRQAILWQDLDRVLAEMGPQKLRVLDAGGGEGQTAIKMAERGHQVILCDLSAQMIDRAKQAAEAKGVSDNMQFIHCAAQDVASHLETPVDLILFHAVLEWVADPRSVLQTLWSVLRPGGVLSLMFYNAHGLLMHNMVAGNFDYVQAGMPKKKKRTLSPDYPRDPAQVYLWLEEAGWQIMGKTGVRVFHDYLREKHQQRDCYEALLELETRYCRQEPYITLGRYIHVTARKPQSKDKV
# notes: CmoM, SAM-dependent tRNA cmo5U34 methyltransferase of E. coli; cmoM gene on pCA24N from the ASKA library; calculated monomer molecular weight 31.7 kDa; 257 protein residues modelled in the crystal structure; also called E. coli CmoM; source: E. coli BL21 (DE3), purified (HisTrap HP Ni2+ column); not shown: His tag (inferred from the HisTrap Ni2+ purification)
# B2: tRNASer1(cmo5UGA) (structured_RNA)
# RNA: GGAAGUGUGGCCGAGCGGUUGAAGGCACCGGUCUUGAAAACCGGCGACCCGAAAGGGUUCCAGAGUUCGAAUCUCUGCGCUUCCGCCA
# modifications: cmo5U34; i6A37 (partly ms2i6A37); other native tRNA modifications
# Columns and labels:
# [1] = molecular target: the molecule itself; experiment: SEC; Superdex 75 column, 100 ug wild-type CmoM, 25 mM HEPES pH 7.5, 150 mM NaCl, 0.5 ml/min; ovalbumin (44 kDa) and MnmC (76 kDa) run for comparison
# CmoM = molecular target: T1, CmoM; experiment: X-ray crystallography (2.22 A); sinefungin (3 mM); Mg2+ (0.04 M magnesium acetate in reservoir); Crystallization: CmoM:tRNA 1:4 molar ratio, 3 mM sinefungin; reservoir 0.04 M Mg acetate, 0.05 M Na cacodylate pH 6.0, 30% MPD, 25 C; protein in 25 mM HEPES pH; details: protein: recombinant; tags: His tag (ASKA pCA24N vector; HisTrap purified); tRNA fold with 16-nt variable arm
Binder,stoichiometry N [1],binding result (CmoM)
B1,2,
B2,,binds
